B1: SEQ ID NO 139 (designed binder)
chain: MLPAPKNLVVSRVTEDSARLSWTAPDAAFDSFDISYWESGKYGEAIVLTVPGSESSYDLTGLKPGTEYLVDIFGVKGGYPSEPLSAIFTT
B2: SEQ ID NO 130 (designed binder)
chain: MLPAPKNLVVSRVTEDSARLSWTAPDAAFDSFHIPYVEAEVPGEAIQLHVPGSERSYDLTGLKPGTEYYVEIWGVKGGFYSPPLIAEFTT
B3: SEQ ID NO 39 (designed binder)
chain: MLPAPKNLVVSRVTEDSARLSWTAPDAAFDSFDIDYREWWTLGEAIVLTVPGSERSYDLTGLKPGTEYYVNIQGVKGGLRSYPLSAIFTT
B4: SEQ ID NO 138 (designed binder)
chain: MLPAPKNLVVSRVTEDSARLSWTAPDAAFDSFFIKYIEWWADGEAIVLTVPGSERSYDLTGLKPGTEYLVEIYGVKGGRQSYPLSAIFTT
B5: SEQ ID NO 140 (designed binder)
chain: MLPAPKNLVVSRVTEDSARLSWTAPDAAFDSFWISYEESDTEGEAIYLRVPGSERSYDLTGLKPGTEYNVTIQGVKGGFPSMPLSAIFTT
B6: SEQ ID NO 152 (designed binder)
chain: MLPAPKNLVVSRVTEDSARLSWTAPDAAFDSFFIGYLEPQPPGEAIVLTVPGSERSYDLTGLKPGTEYNVTIQGVKGGFPSSPLSAIFTT
B7: SEQ ID NO 128 (designed binder)
chain: MLPAPKNLVVSRVTEDSARLSWTAPDAAFDSFIINYIEIVQYGEAIVLTVPGSERSYDLTGLKPGTEYPESIWGVKGGGASSPLSAIFTT
B8: SEQ ID NO 153 (designed binder)
chain: MLPAPKNLVVSRVTEDSARLSWTAPDAALDSFRIAYTEYFVGGEAIVLTVPGSERSYDLTGLKPGTEYGVGIYGVKGGAGSSPLSAIFTT
B9: SEQ ID NO 132 (designed binder)
chain: MLPAPKNLVVSRVTEDSARLSWTAPDAAFDSFTIVYAEVTYDGEAIVLTVPGSERSYDLTGLKPGTEYDVFIEGVKGGELSWPLSAIFTT
B10: SEQ ID NO 145 (designed binder)
chain: MLPAPKNLVVSRVTEDSARLSWTAPDAAFDSFFIPYAEPSPTGEAIVLTVPGSERSYDLTGLKPGTEYDVWIEGVKGGTLSWPLSAIFTT
B11: SEQ ID NO 146 (designed binder)
chain: MLPAPKNLVVSRVTEDSARLSWTAPDAAFDSFYIAYAEPRPDGEAIVLTVPGSERSYDLTGLKPGTEYSVLIHGVKGGLLSSPLSAIFTT
B12: SEQ ID NO 166 (designed binder)
chain: MLPAPKNLVVSRVTEDSARLSWTAPDAAFDSFTILYNEIQNVGEAIVLTVPGSERSYDLTGLKPGTEYDVWIEGVKGGELSWPLSAIFTT
B13: SEQ ID NO 144 (designed binder)
chain: MLPAPKNLVVSRVTEDSARLSWTAPDAAFDSFIIPYAEVRPDGEAIVLTVPGSERSYDLTGLKPGTEYSVLIHGVKGGKLSLPLSAIFTT
B14: SEQ ID NO 42 (designed binder)
chain: MLPAPKNLVVSRVTEDSARLSWTAPDAAFDSFTIEYYESFYGGEAIVLTVPGSERSYDLTGLKPGTEYYVSIYGVKGGWLSRPLSAIFTT
B15: SEQ ID NO 149 (designed binder)
chain: MLPAPKNLVVSRVTEDSARLSWTAPDAAFDSFIIPYAEVRPDGEAIVLTVPGSERSYDLTGLKPGTEYSVLIHGVKGGKLSEPLSAIFTT
B16: SEQ ID NO 154 (designed binder)
chain: MLPAPKNLVVSRVTEDSARLSWTAPDAAFDSFFIPYAEPRPDGEAIVLTVPGSERSYDLTGLKPGTEYSVLIHGVKGGLLSSPLSAIFTT
B17: SEQ ID NO 133 (designed binder)
chain: MLPAPKNLVVSRVTEDSARLSWTAPDAAFDSFPIVYGEAWVTGEAIVLTVPGSERSYDLTGLKPGTEYDVWIEGVKGGELSWPLSAIFTT
B18: SEQ ID NO 160 (designed binder)
chain: MLPAPKNLVVSRVTEDSARLSWTAPDAAFDSFNIAYGEWRQHGEAIVLTVPGSERSYDLTGLKPGTEYDVFIDGVKGGNLSWPLSAIFTT
B19: SEQ ID NO 134 (designed binder)
chain: MLPAPKNLVVSRVTEDSARLSWTAPDAAFDSFWIDYYERKYVGEAIVLTVPGSERSYDLTGLKPGTEYEVTIYGVKGGWYSDPLSAIFTT
B20: SEQ ID NO 157 (designed binder)
chain: MLPAPKNLVVSRVTEDSARLSWTAPDAAFDSFAIEYYEYVGNGEAIVLTVPGSERSYDLTGLKPGTEYQVGIYGVKGGYYSRPLSAIFTT
B21: SEQ ID NO 155 (designed binder)
chain: MLPAPKNLVVSRVTEDSARLSWTAPDAAFDSFPITYRERSQYGEAIVLTVPGSERSYDLTGLKPGTEYVVPIEGVKGGRGSKPLSAIFTT
B22: SEQ ID NO 161 (designed binder)
chain: MLPAPKNLVVSRVTEDSARLSWTAPDAAFDSFTIRYWEELPTGEAIVLTVPGSERSYDLTGLKPGTEYTVEIFGVKGGYLSRPLSAISTT
B23: SEQ ID NO 136 (designed binder)
chain: MLPAPKNLVVSRVTEDSARLSWTAPDAAFDSFFIYYIESYPAGEAIVLTVPGSERSYDLTGLKPGTEYWMGIDGVKGGRWSTPLSAIFTT
B24: SEQ ID NO 41 (designed binder)
chain: MLPAPKNLVISRVTEDSARLSWTAPDAAFDSFFIYYIESYPAGEAIVLTVPGSERSYDLTGLKPGTEYWVGIDGVKGGRWSTPLSAIFTT
B25: SEQ ID NO 43 (designed binder)
chain: MLPAPKNLVVSRVTEDSARLSWTAPDAAFDSFYIEYYESYPGGEAIVLTVPGSERSYDLTGLKPGTEYDVYIYGVKGGYWSRPLSAIFTT
B26: SEQ ID NO 137 (designed binder)
chain: MLPAPKNLVVSRVTEDSARLSWTAPDAAFDSFEIEYDEPSVAGEAIVLTVPGSERSYDLTGLKPGTEYRVFIWGVKGGNQSWPLSAIFTT
B27: SEQ ID NO 142 (designed binder)
chain: MLPAPKNLVVSRVTKDSARLSWTAPDAAFDSFHIAYEEATTYGEAIFLRVPGSERSYDLTGLKPGTEYEVKIHGVKGGADSKPLVAPFTT
B28: SEQ ID NO 162 (designed binder)
chain: MLPAPKNLVVSRVTEDSARLSWTAPDAAFDSFHIAYEEATTYGEAIFLRVPGSERSYDLTGLKPGTEYDVWIEGVKGGTISGPLSAIFTT
B29: SEQ ID NO 127 (designed binder)
chain: MLPAPKNLVVSRVTEDSARLSWTAPDAAFDSFPIPYGESPPSGEAIVLTVPGSERSYDLTGLKPGTEYVVIIRGVKGGGRSGPLSAISTT
B30: SEQ ID NO 147 (designed binder)
chain: MLPAPKNLVVSRVTEDSARLSWTAPDAAFDSFFIGYLEPQPPGEAIVLTVPGSERSYDLTGLKPGTEYSVLIHGVKGGRNSDPLSAISTT
B31: SEQ ID NO 165 (designed binder)
chain: MLPARKNLVVSRVTEDSARLSWTAPDAAFDSFFIPYAEPSPTGEAIVLTVPGSERSYDLTGLKPGTEYSVLIHGVKGGHLSDPLSAISTT
B32: SEQ ID NO 151 (designed binder)
chain: MLPAPKNLVVSRVTEDSARLSWTAPDAAFDSFFIPYAEPSPTGEAIVLTVPGSERSYDLTGLKPGTEYGVVILGVKGGYGSDPLSAIFTT
B33: SEQ ID NO 150 (designed binder)
chain: MLPAPKNLVVSRVTEDSARLSWTAPDAAFDSFPIAYAEPSPTGEAIVLTVPGSERSYDLTGLKPGTEYSVLIHGVKGGHLSDPLSAIFTT
B34: SEQ ID NO 159 (designed binder)
chain: MLPAPKNLVVSRVTEDSARLSWTAPDAAFDSFLIPYAETSPSGEAIVLTVPGSERSYDLTGLKPGTEYSVLIHGVKGGRNSDPLSAIFTT
B35: SEQ ID NO 158 (designed binder)
chain: MLPAPKNLVVSRVTEDSARLSWTAPDAAFDSFIIDYLELDDYGEAIVLTVPGSERSYDLTGLKPGTEYPVYIYGVKGGLPSTPLSAIFTT
B36: SEQ ID NO 40 (designed binder)
chain: MLPAPKNLVVSRVTEDSARLSWTAPDAAFDSFVIEYWEYVGHGEAIVLTVPGSERSYDLTGLKPGTEYSVGIYGVKGGSLSRPLSAIFTT
B37: SEQ ID NO 141 (designed binder)
chain: MLPAPKNLVVSRVTEDSARLSWTAPDAAFDSFVIEYFEQFNLGEAIVLTVPGSERSYDLTGLKPGTEYLVGIYGVKGGWLSHPLSAIFTT
B38: SEQ ID NO 156 (designed binder)
chain: MLPAPKNLVVSRVTEDSARLSWTAPDAAFDSFAIEYFENLGIGEAIVLTVPGSERSYDLTGLKPGTEYVVNIYGVKGGWLSSPLSAIFTT
B39: SEQ ID NO 143 (designed binder)
chain: MLPAPKNLVVSRVTEDSARLSWTAPDAAFDSFHIAYEEADSEGEAIYLRVPGSERSYDLTGLKPGTEYSVNIQGVKGGIVSFPLHAEFTT

Sequence of human serum albumin (human) (P02768 25-609 limits assumed): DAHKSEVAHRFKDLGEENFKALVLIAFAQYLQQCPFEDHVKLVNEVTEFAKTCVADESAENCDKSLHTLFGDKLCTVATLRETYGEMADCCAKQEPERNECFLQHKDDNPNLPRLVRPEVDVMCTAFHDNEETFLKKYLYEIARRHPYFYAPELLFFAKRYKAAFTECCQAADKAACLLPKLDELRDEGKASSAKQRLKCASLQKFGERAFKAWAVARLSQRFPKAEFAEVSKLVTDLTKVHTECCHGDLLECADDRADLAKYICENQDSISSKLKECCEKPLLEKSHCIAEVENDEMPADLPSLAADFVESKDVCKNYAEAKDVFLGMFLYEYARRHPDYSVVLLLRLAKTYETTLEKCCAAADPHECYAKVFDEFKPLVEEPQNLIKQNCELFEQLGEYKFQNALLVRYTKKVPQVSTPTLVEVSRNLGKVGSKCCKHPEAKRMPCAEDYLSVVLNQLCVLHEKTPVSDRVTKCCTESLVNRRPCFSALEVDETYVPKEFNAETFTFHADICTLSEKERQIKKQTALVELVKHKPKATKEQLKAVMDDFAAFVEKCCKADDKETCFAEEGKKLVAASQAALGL

The assay has as its target human serum albumin (human) (UniProt P02768). The experiment in a line: screening ELISA. On the technique in general: An ELISA detects its analyte on a solid surface through an enzyme-linked reagent.
Regarding B1, the HSA stood at 2100. The result for B2 reads 6050; that for B3, 4160; that for B4, 3500. Next, B5: 1600.

Consider B6, for which the HSA turned out to be 5300. Next, B7: 3250; B8: 13100; B9: 2350. The result for B10 reads 48400; that for B11, 3800. B12: the HSA is 5050. Molecule B13 returned an HSA of 2750. The result for B14 reads 5920; that for B15, 3350; that for B16, 4150.

As to B17, the HSA was 5000. Turning to B18, the HSA stood at 3300. Next, B19: 1950. The result for B20 reads 2450; that for B21, 26000; that for B22, 5050. Next, B23: 5700. The molecule B24 returned an HSA of 10100. The result for B25 reads 8160; that for B26, 2050; that for B27, 3400.

B28 showed an HSA of 1850. Next, B29: 93300. Next, B30: 71200; B31: 65200; B32: 55000. Next, B33: 3500; B34: 1950. For the molecule B35, the HSA worked out at 1350.

Molecule B36 yielded an HSA of 2960.

Molecule B37 showed an HSA of 3150. The result for B38 reads 5000.

The molecule B39 came in with an HSA of 9250.

The values are drawn from patent US20210145976A1.
